Reference: patent publication US20200207847A1 (SINGAPORE HEALTH SERVICES PTE, published 2020)

Columns and labels:
[1] = target: T1, human IL-11Rα, FLAG-tagged, expressed at the surface of transiently transfected cells (human, UniProt Q14626 23-422); assay: same assay; percent relative to the positive control anti-FLAG antibody (100%)
T1 construct: whole, on cells; also called IL-11Rα expressing HEK cells; FLAG-tagged human IL-11Rα; not shown: tag
T1 sequence (looked up): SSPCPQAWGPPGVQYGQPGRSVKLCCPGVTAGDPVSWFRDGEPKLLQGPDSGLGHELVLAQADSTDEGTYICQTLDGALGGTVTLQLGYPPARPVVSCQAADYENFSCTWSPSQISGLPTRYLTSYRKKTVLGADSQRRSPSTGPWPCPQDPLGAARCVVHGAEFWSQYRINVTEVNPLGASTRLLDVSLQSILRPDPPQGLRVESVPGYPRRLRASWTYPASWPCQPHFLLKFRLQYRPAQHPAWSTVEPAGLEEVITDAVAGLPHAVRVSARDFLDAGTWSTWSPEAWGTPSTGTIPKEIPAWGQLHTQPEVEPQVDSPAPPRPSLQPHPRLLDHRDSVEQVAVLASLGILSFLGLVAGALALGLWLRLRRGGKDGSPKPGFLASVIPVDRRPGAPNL
Experimental: (§1) Briefly, labelled control cells (not expressing IL-11Rα at the cell surface) and unlabelled target cells expressing human IL-11Rα at their surface (following transient transfection with a plasmid encoding a FLAG-tagged human IL-11Rα) were mixed together with the cell culture supernatant (containing mouse-anti-IL-11Rα antibodies) and secondary detection antibodies (fluorescently-labelled anti-mouse IgG antibody).
(§2) The cells were then analysed using the HTFC Screening System (iQue) for the two labels (i.e. the cell label and the label on the secondary antibody). Detection of the secondary antibody on the unlabelled, IL-11Rα expressing cells indicated ability of the mouse-anti-IL-11Rα antibodies to bind to IL-11Rα. Detection of the secondary antibody on the labelled, control cells indicated cross-reactivity of the mouse-anti-IL-11Rα antibodies for target other than IL-11Rα.
As a positive control condition, labelled and unlabelled cells were incubated with a mouse anti-FLAG tag antibody as the primary antibody.

[2] = target: T1, human IL-11Rα, FLAG-tagged, expressed …; assay: flow cytometry of subcloned hybridoma supernatant on cells transfected with FLAG-tagged human IL-11Rα (sheet header: 'pB1-IL11-hum.FL', 'flow cytometry (Attunes)'; text: iQue mix-and-measure, anti-mouse IgG secondary)
Experimental: The mouse hybridomas producing anti-human IL-11Rα antibodies were sub-cloned, and cell culture supernatant from the subcloned hybridomas was analysed by “mix-and-measure” iQue assay for (i) ability to bind to human IL-11Rα, and (ii) cross reactivity for antigen other than IL-11Rα.
as §1, §2

| Binder | % positive [1] [%] | GMFI [2] |
| --- | --- | --- |
| BSO-5E5 (antibody, V domains shown, Mouse monoclonal from hybridoma; also called RA5) VH: DVQLQESGPGLVKPSQSLSLTCSVTGYSITSDYYWNWIRQFPGNKLEWMGYISYDSSNNYNPSLKNRISITRDTSKNQFFLKLNSVTTEDTATYYCASVGYYYVSDWYFDVWGTGTTVTVSS VL: DIVMSQSPSSLPVSVGENVTMSCKSSQSLLYGSNQKNYLAWYQQKPGQSPKLLIYWASTRESGVPDRFTGSGSGTDFTLTISSVKAEDLAVYFCQQYYSYPRTFGGGTKLEIK | 28 | 8780 |
| BSO-2E5 (antibody, V domains shown, Mouse monoclonal from hybridoma; also called RA3) VH: QGQVQQSGAELVKPGASVKLSCKTSGFTFSTSYISWLKQKPRQSLEWIAWIYAGTGSTSYNQKFTGKAQLTVDTSSSTAYMQLSSLTSEDSAIYYCARHWAYWGQGTLVTVSA VL: DIQMTQSPSSLSASLGERVSLTCRASQDIGSSLNWLQQEPDGTIKRLIYATASLESGVPKRFSGSRSGSDYSLTISRLESEDFVDYYCQQYASSPPTFGAGTKLELK | 30 | 9540 |
| BSO-7G9 (antibody, V domains shown, Mouse monoclonal from hybridoma) VH: QVQLQQPGAELVKPGASVRLSCKASGYTFTSYWMHWVKQRPGQGLEWIGMIHPNSGYTNYNEKFKIKATLTVDKSSSTAHMQLSSLTSEDSAVYHCARGGYDGSYGPWFAYWGQGTLVTVSA VL: DVVMTQTPLSLPVSLGDQASISCRSSQSLVHSNGNTYLHWYLQKPGQSPKLLIYKVSNRFSGVPDRFSGSGSGTDFTLKISRVEAEDLGVYFCSQSTHVPLTFGAGTKLELK | 59 | 18600 |
| BSO-4G3 (antibody, V domains shown, Mouse monoclonal from hybridoma) VH: EVQLVESGGGLVKPGGSLKLSCAASGFTFSTYAMSWVRQTPEKRLEWVAAIKSNGGSTYYPDTVKDRFTISRDNAKNTLYLQMSSLRPEDTALYYCAHGLLFAHWGQGTLVTVSA VL: DIVLTQSPASLAVSLGQSVTISCRASESVEYSGTTLMQWYQQKPGQPPKLLIYGASNVESGVPARFSGSGSGTDFSLNIHPVEEDDIAMYFCQQSRKVPYTFGSGTKLEIK | 30 | 9300 |

The remaining lines, values ahead:

| % positive [1] [%] | GMFI [2] | Binder |
| --- | --- | --- |
| 111 | 34800 | BSO-9A7 (antibody, V domains shown, Mouse monoclonal from hybridoma; also called RA7) VH: QVQLQQPGAELVRPGSSVKLSCKASGYTFTNYWMHWLKQRPVQGLEWIGNIGPSDSKTHYNQKFKDKATLTVDKSSSTAYMQLNSLTSEDSAVYYCARGDYVLFTYWGQGTLVTVSA VL: DIVLTQSPATLSMTPGDSVSLSCRASQSISNNLHWYQQKSHESPRLLIKYASQSISGIPSRFSGSGSGTDFTLSFNSVETEDFGVYFCQQRYSWPLTFGAGTKLEMK |
| 42 | 13100 | BSO-10D11 (antibody, V domains shown, Mouse monoclonal from hybridoma) VH: QVQLQQSGTELVRPGTSVKMSCKAAGYTFTDYWIGWIKQRPGHGLEWIGDIFPGGDYTKCSERFKGKAKLTADTSSSTAYMQLSRLTSEDSAIYYCARRSTTIRFGAMDNWGQGTSVTVSS VL: DIQMTQSPSSLSASLGERVSLTCRASQEISAYLSWLQQKPDGTIKRLIYSTSTLDSGVPKRFSGSRSGSDYSLTISSLESEDFADYFCLQYASSPLTFGAGTKLELK |
| 35 | 10900 | BSO-13B10 (antibody, V domains shown, Mouse monoclonal from hybridoma; also called RA9) VH: QVQLKESGPGLVAPSQSLSITCTVSGFSLTSFSISWVRQPPGKGLEWLGGIWTGGGTNYNSALKPRLSISKDNSKSQVFLKMNSLQTDDTARYYCARNSNYPSGFAYWGQGTLVTVSA VL: DIVMTQSQKFMSTSVGDRVSVTCKASQNVGSNVAWYQQKAGQSPKALIYSASYRYSGVPDRFTGSGSGTDFTLTISNVQSEDLAEYFCQQYNSYPLTFGAGTKLELK |
